Data on one molecule can be found in article PMC2094072.

Targets include BLM642-1290 R979A (UniProt P54132 642-1290, R979A); BLM642-1290 R979/982A (UniProt P54132 642-1290, R979A;R982A); BLM642-1290 Q975V (UniProt P54132 642-1290, Q975V); BLM642-1290 (UniProt P54132 642-1290); BLM642-1290 R982A (UniProt P54132 642-1290, R982A); BLM642-1290 R959A (UniProt P54132 642-1290, R959A); BLM642-1290 H798A (UniProt P54132 642-1290, H798A).
Holding throughout (assay): fluorescence anisotropy
(In general: Fluorescence polarisation rises when a labelled molecule tumbles more slowly, as on binding a larger partner.)

Chain of BLM642-1290 R979/982A (P54132 642-1290 R979A/R982A): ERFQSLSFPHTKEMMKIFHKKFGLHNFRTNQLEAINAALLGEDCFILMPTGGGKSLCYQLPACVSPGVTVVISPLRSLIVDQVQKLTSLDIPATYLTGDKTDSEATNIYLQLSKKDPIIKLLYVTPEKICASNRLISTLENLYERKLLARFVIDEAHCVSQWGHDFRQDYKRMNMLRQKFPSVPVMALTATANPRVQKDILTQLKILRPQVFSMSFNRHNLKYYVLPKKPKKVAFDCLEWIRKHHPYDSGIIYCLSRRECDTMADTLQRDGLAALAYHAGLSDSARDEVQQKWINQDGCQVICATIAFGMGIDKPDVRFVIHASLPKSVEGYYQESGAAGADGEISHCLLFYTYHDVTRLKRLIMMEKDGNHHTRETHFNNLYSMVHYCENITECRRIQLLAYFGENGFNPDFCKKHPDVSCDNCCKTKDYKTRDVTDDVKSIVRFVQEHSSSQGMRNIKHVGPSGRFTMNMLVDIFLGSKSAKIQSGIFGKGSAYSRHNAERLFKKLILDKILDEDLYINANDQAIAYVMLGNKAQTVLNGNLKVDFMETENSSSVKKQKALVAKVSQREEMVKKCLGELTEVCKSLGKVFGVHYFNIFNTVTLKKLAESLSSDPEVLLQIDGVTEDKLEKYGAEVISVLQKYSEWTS
Chain of BLM642-1290 R959A (P54132 642-1290 R959A): as the sequence (P54132 642-1290 R979A/R982A) above, with R318A, A338R, A341R counted along it
Chain of BLM642-1290 R979A (P54132 642-1290 R979A): as the sequence (P54132 642-1290 R979A/R982A) above, with A341R counted along it
Chain of BLM642-1290 (P54132 642-1290): as the sequence (P54132 642-1290 R979A/R982A) above, with A338R, A341R counted along it
Chain of BLM642-1290 R982A (P54132 642-1290 R982A): as the sequence (P54132 642-1290 R979A/R982A) above, with A338R counted along it
Chain of BLM642-1290 Q975V (P54132 642-1290 Q975V): as the sequence (P54132 642-1290 R979A/R982A) above, with Q334V, A338R, A341R counted along it
Chain of BLM642-1290 H798A (P54132 642-1290 H798A): as the sequence (P54132 642-1290 R979A/R982A) above, with H157A, A338R, A341R counted along it

GGGTTAGGGTTAGGGTTAGGG (ssDNA) [oligonucleotide D (21-mer)]: the Kd with BLM642-1290 R979A was 1.91 ± 0.46 nM; in the data set with BLM642-1290 R979/982A it was 1.32 ± 0.49 nM; with BLM642-1290 Q975V, 3.31 ± 0.4 nM; in the data set with BLM642-1290, 1.11 ± 0.11 nM; in the data set with BLM642-1290 R982A it was 2.13 ± 0.32 nM; in the data set with BLM642-1290 R959A, 4.15 ± 0.4 nM. Moreover, the affinity in the data set with BLM642-1290 H798A, expressed as Kd, was 5.03 ± 0.55 nM.

For orientation: Kd means the constant that tells how readily two partners part at equilibrium. High values mean lower affinity, low ones higher affinity.
